Numbering of substitutions follows the chain as printed. Names may count otherwise.
T1: IL-22 receptors R1 and R2 on HEK-Blue IL-22 reporter cells (UniProt Q8N6P7 16-574; Q08334 20-325, limits assumed)
T1 sequence (looked up) 1: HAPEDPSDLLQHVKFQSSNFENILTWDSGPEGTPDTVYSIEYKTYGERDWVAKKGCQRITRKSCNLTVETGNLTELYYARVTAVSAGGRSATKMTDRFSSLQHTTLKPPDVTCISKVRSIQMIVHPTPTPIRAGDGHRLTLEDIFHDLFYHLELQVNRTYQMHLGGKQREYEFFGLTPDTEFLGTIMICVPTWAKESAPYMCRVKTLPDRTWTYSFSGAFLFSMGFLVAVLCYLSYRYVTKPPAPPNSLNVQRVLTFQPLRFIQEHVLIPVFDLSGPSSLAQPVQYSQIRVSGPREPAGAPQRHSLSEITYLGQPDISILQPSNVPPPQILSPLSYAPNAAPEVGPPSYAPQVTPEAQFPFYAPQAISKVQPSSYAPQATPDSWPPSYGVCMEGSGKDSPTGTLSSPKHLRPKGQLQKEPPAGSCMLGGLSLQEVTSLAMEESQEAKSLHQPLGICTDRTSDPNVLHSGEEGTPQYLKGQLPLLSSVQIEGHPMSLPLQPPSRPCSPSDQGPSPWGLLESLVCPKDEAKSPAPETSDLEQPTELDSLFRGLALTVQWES
T1 sequence (looked up) 2: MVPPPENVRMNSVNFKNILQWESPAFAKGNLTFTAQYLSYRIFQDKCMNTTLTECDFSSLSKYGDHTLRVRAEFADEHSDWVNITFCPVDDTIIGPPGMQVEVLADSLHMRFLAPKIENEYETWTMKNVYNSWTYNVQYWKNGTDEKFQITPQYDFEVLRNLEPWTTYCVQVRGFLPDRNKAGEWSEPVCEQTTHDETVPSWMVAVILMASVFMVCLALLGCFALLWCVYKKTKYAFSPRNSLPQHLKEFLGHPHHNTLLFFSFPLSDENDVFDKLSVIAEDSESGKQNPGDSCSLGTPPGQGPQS

T2: IL-10 receptors R1 and R2 on HEK-Blue IL-10 reporter cells (UniProt Q13651 22-578; Q08334 20-325, limits assumed)
T2 sequence (looked up) 1: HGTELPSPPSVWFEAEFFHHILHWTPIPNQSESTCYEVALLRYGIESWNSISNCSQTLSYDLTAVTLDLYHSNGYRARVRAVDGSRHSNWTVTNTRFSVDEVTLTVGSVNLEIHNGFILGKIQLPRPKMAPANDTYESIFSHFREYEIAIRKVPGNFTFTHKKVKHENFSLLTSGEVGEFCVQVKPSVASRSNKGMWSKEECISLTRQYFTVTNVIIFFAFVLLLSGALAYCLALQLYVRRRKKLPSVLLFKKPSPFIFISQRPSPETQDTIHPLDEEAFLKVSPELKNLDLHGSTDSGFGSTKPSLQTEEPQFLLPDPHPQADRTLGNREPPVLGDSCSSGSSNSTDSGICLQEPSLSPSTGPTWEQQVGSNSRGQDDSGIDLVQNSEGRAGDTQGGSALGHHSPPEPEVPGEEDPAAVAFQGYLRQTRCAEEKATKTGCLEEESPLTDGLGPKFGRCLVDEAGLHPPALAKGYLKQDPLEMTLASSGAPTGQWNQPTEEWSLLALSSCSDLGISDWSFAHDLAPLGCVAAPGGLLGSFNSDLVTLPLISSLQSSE
T2 sequence (looked up) 2: T1 sequence (looked up) 2

B1: ORK2-008 (foldikine-2, two 8 aa InterLinkers GPPPPPPG) (ligand)
chain: LRPRDLISNINVIVLELKGSETTFMCEYADETATIVEFLNRWITFCQSIISTLTGPPPPPPGTKKTQLQLEHLLLDLQMILNGINNYKNPKLTRMLTFKFYMPKKATELKHLQCLEEELKPLEEVLNLAQSKNFHLRPRDLISNINVIVLELKGSETTFMCEYADETATIVEFLNRWITFCQSIISTLTGPPPPPPGTKKTQLQLEHLLLDLQMILNGINNYKNPKLTRMLTFKFYMPKKATELKHLQCLEEELKPLEEVLNLAQS
B2: foldikine-22_1 (SCIL22_1) (ligand)
chain: GCRLDKSNFQQPYITNRTFMLAKEASLADNNTDVRLIGEKLFHGVSMSERCYLMKQVLNFTLEEVLFPQSDRFQPYMQEVVPFLARLSNRLSTCMPGGSKTHIQRNVQKLKDTVKKLGESGEIKAIGELDLLFMSLRNACIANGTLDKSNFQQPYITNRTFMLAKEASLADNNTDVRLIGEKLFHGVSMSERCYLMKQVLNFTLEEVLFPQSDRFQPYMQEVVPFLARLSNRLSRLELLPHIQRNVQKLKDTVKKLGESGEIKAIGELDLLFMSLRNACI
B3: MutM (engineered monomeric IL-10 with an inserted polyGly loop between Asn116 and Lys117) (ligand)
chain: MSPGQGTQSENSCTHFPGNLPNMLRDLRDAFSRVKTFFQMKDQLDNLLLKESLLEDFKGYLGCQALSEMIQFYLEEVMPQAENQDPDIKAHVNSLGENLKTLRLRLRRCHRFLPCENGGGSGGKSKAVEQVKNAFNKLQEKGIYKAMSEFDIFINYIEAYMTMKIRN
B4: MutSC2 (MutSC1 with the Mut3 point mutations) (ligand)
chain: MTQSENSCTHFPGILPNMLRDLREAFKRVKTFFQMKDQLDSLLLKESLLEDFKGYLGCQALSEMIQFYLEEVMPQAENQDPDIKAHVISLGENLNTLRLRLRRCHRFLPCENKSKAVEQVKNAFNKLQEKGIYKAMSEFDIFINYIEAYMMMNNGGLDYLPNMLRDLREAFKRVKTFFQMKDQLDSLLLKESLLEDFKGYLGCQALSEMIQFYLEEVMPQAENQDPDIKAHVISLGENLNTLRLRLRRNHRFLPCENKSKAVEQVKNAFNKLQEKGIYKAMSEFDIFINYIEAYMMMKIRN
B5: foldikine-22_3 (SCIL22_3) (ligand)
chain: GVRLDKSNFQQPYITNRTFMLAKEASLADNNTDVRLIGEKLFHGVSMSERCYLMKQVLNFTLEEVLFPQSDRFQPYMQEVVPFLARLSNRLKKLMASSDHIQRNVQKLKDTVKKLGESGEIKAIGELDLLFMSLRNACIANGTLDKSNFQQPYITNRTFMLAKEASLADNNTDVRLIGEKLFHGVSMSERCYLMKQVLNFTLEEVLFPQSDRFQPYMQEVVPFLARLSNRLSRLELLPHIQRNVQKLKDTVKKLGESGEIKAIGELDLLFMSLRNACI
B6: mutantE_IL22 (A132Y, D43E, S45R, E77Y, T70I, K61W, S64M) (ligand)
chain: APISSHCREDRSNFQQPYITNRTFMLAWEAMLADNNIDVRLIGYKLFHGVSMSERCYLMKQVLNFTLEEVLFPQSDRFQPYMQEVVPFLYRLSNRLSTCHIEGDDLHIQRNVQKLKDTVKKLGESGEIKAIGELDLLFMSLRNACI
B7: mutantD_IL22 (K61W, S64M) (ligand)
chain: B6 chain with E9L, R11K, I37T, Y44E, Y90A
B8: ORK2-007 (foldikine-2, two 7 aa InterLinkers GPPPPPG) (ligand)
chain: LRPRDLISNINVIVLELKGSETTFMCEYADETATIVEFLNRWITFCQSIISTLTGPPPPPGTKKTQLQLEHLLLDLQMILNGINNYKNPKLTRMLTFKFYMPKKATELKHLQCLEEELKPLEEVLNLAQSKNFHLRPRDLISNINVIVLELKGSETTFMCEYADETATIVEFLNRWITFCQSIISTLTGPPPPPGTKKTQLQLEHLLLDLQMILNGINNYKNPKLTRMLTFKFYMPKKATELKHLQCLEEELKPLEEVLNLAQS
B9: ORK2-010 (foldikine-2, two 7 aa InterLinkers GGGSGGG) (ligand)
chain: B8 chain with P56G, P57G, P58S, P59G, P60G, P190G, P191G, P192S, P193G, P194G
B10: ORK2-011 (foldikine-2, two 8 aa InterLinkers GGGSGGGG) (ligand)
chain: LRPRDLISNINVIVLELKGSETTFMCEYADETATIVEFLNRWITFCQSIISTLTGGGSGGGGTKKTQLQLEHLLLDLQMILNGINNYKNPKLTRMLTFKFYMPKKATELKHLQCLEEELKPLEEVLNLAQSKNFHLRPRDLISNINVIVLELKGSETTFMCEYADETATIVEFLNRWITFCQSIISTLTGGGSGGGGTKKTQLQLEHLLLDLQMILNGINNYKNPKLTRMLTFKFYMPKKATELKHLQCLEEELKPLEEVLNLAQS
B11: ORK2-009 (foldikine-2, two 6 aa InterLinkers GGGSGG) (ligand)
chain: LRPRDLISNINVIVLELKGSETTFMCEYADETATIVEFLNRWITFCQSIISTLTGGGSGGTKKTQLQLEHLLLDLQMILNGINNYKNPKLTRMLTFKFYMPKKATELKHLQCLEEELKPLEEVLNLAQSKNFHLRPRDLISNINVIVLELKGSETTFMCEYADETATIVEFLNRWITFCQSIISTLTGGGSGGTKKTQLQLEHLLLDLQMILNGINNYKNPKLTRMLTFKFYMPKKATELKHLQCLEEELKPLEEVLNLAQS
B12: MutSC1 (foldikine_10, single chain dimeric IL-10) (ligand)
chain: MTQSENSCTHFPGNLPNMLRDLRDAFSRVKTFFQMKDQLDNLLLKESLLEDFKGYLGCQALSEMIQFYLEEVMPQAENQDPDIKAHVNSLGENLKTLRLRLRRCHRFLPCENKSKAVEQVKNAFNKLQEKGIYKAMSEFDIFINYIEAYMTMNNGGLDYLPNMLRDLRDAFSRVKTFFQMKDQLDNLLLKESLLEDFKGYLGCQALSEMIQFYLEEVMPQAENQDPDIKAHVNSLGENLKTLRLRLRRNHRFLPCENKSKAVEQVKNAFNKLQEKGIYKAMSEFDIFINYIEAYMTMKIRN
B13: 3dlq. Pdb sequence-Hydrophobic core stabilised protein (IL-22hydC) (ligand)
chain: ARLDKSNFQQPYITNRMFMLAKEMSLADNNTDVRLIGEKLFHGVSMSERCYLMKQILNFMLEEVLFPQSDRFQPYMQEVVPFLARLSNRLSTCHIEGDDLHIQRNVQKLKDTVKKLGELGEIKAIGELDLLFMSLRNACI
B14: Mut3 (IL-10 D28E, S31K, N45S, T155M, N18I, N92I, K99N) (ligand)
chain: MSPGQGTQSENSCTHFPGILPNMLRDLREAFKRVKTFFQMKDQLDSLLLKESLLEDFKGYLGCQALSEMIQFYLEEVMPQAENQDPDIKAHVISLGENLNTLRLRLRRCHRFLPCENKSKAVEQVKNAFNKLQEKGIYKAMSEFDIFINYIEAYMMMKIRN
B15: Mut1 (IL-10 D28E, S31R, N45S, T155M) (ligand)
chain: B14 chain with I19N, K32R, I93N, N100K
B16: Mut2 (IL-10 D28E, S31K, N45S, T155M) (ligand)
chain: B14 chain with I19N, I93N, N100K

Legend:
Assay in all cases: cell-based or functional assay
[1] = biological target: IL-2 receptor on IL-2 reporter HEK blue cells (Human IL-2 & IL-15 Reporter Cells, hkb-il2bg)
Chain of IL-2 receptor on IL-2 reporter HEK blue cells (Human IL-2 & IL-15 Reporter Cells, hkb-il2bg) (P14784 whole entry, chain 1 of 2): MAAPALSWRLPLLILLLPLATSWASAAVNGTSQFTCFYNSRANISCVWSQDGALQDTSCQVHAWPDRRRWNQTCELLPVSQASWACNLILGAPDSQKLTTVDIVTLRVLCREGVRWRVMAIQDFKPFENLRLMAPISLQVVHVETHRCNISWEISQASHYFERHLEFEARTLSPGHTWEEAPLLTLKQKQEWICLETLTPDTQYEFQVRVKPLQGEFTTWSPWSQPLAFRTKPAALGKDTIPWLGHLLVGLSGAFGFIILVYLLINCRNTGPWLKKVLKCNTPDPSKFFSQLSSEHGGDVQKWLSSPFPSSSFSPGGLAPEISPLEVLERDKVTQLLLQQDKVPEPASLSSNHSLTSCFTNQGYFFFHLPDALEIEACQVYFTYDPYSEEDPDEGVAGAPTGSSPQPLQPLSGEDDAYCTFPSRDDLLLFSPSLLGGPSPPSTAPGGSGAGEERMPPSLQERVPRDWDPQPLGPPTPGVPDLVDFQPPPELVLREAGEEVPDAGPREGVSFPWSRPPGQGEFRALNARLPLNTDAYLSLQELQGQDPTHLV
Chain of IL-2 receptor on IL-2 reporter HEK blue cells (Human IL-2 & IL-15 Reporter Cells, hkb-il2bg) (P31785 whole entry, chain 2 of 2, further chain): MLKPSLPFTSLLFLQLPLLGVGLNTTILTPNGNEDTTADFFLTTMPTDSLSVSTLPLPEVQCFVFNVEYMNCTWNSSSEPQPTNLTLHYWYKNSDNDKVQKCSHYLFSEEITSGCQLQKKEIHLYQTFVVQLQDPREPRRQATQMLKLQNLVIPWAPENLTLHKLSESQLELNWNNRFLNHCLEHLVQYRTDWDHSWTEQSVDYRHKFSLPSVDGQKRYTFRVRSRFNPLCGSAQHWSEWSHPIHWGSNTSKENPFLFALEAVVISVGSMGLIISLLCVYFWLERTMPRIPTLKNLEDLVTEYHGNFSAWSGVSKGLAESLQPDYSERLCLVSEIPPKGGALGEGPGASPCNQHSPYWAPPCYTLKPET

[2] = biological target: T1, IL-22 receptors R1 and R2 on HEK-Blue …
[3] = biological target: T2, IL-10 receptors R1 and R2 on HEK-Blue …

Binder | EC-50 (IL-2 reporter HEK blue cells, SEAP, absorbance 630 nm) [1] [pM] | Apparent Kd (M) average (HEK-Blue IL-10 SEAP reporter, absorbance 630 nm, saturation binding fit) [3] [M] | Fold change-apparentKD (against IL-10 ORF) [3] [fold] | also measured
B1 | 251 | – | – | –
B2 | – | – | – | apparent Kd in comparison with IL22 WT (HEK-Blue IL-22 reporter) [2]: ~4 fold
B3 | – | 2.56e-10 | 0.773 | –
B4 | – | 1.2e-11 | 16.5 | –
B5 | – | – | – | apparent Kd in comparison with IL22 WT (HEK-Blue IL-22 reporter) [2]: ~4 fold
B6 | – | – | – | increase in affinity over wt [2]: 10 fold
B7 | – | – | – | increase in affinity over wt [2]: 2 fold
B8 | 184 | – | – | –
B9 | 190 | – | – | –
B10 | 171 | – | – | –
B11 | 211 | – | – | –
B12 | – | 1.9e-11 | 10.4 | –
B13 | – | – | – | Kd (apparent, HEK-Blue IL-22 reporter) [2]: 0.0054 nM; gain in affinity against IL-22 WT (HEK-Blue IL-22 reporter) [2]: 2 fold
B14 | – | 2.61e-11 | 7.59 | –
B15 | – | 1.45e-10 | 1.37 | –
B16 | – | 6.45e-11 | 3.07 | –
